From US20130274124A1

How the values were obtained:
Assay in all cases: cell-based or functional assay
[1] = molecular target: collagen IV/galectin-8 (hit ECM combination) (human) (UniProt P02462)
[2] = molecular target: collagen I/laminin (hit ECM combination) (human) (UniProt P02452)
[3] = molecular target: collagen II/galectin-4 (hit ECM combination) (human) (UniProt P02458)

Measured: reduction of cellular attachment after blocking the integrin with an antibody

collagen IV/galectin-8 (hit ECM combination) (human), sequence (P02462 173-1669 P555T limits assumed, chain 1 of 2): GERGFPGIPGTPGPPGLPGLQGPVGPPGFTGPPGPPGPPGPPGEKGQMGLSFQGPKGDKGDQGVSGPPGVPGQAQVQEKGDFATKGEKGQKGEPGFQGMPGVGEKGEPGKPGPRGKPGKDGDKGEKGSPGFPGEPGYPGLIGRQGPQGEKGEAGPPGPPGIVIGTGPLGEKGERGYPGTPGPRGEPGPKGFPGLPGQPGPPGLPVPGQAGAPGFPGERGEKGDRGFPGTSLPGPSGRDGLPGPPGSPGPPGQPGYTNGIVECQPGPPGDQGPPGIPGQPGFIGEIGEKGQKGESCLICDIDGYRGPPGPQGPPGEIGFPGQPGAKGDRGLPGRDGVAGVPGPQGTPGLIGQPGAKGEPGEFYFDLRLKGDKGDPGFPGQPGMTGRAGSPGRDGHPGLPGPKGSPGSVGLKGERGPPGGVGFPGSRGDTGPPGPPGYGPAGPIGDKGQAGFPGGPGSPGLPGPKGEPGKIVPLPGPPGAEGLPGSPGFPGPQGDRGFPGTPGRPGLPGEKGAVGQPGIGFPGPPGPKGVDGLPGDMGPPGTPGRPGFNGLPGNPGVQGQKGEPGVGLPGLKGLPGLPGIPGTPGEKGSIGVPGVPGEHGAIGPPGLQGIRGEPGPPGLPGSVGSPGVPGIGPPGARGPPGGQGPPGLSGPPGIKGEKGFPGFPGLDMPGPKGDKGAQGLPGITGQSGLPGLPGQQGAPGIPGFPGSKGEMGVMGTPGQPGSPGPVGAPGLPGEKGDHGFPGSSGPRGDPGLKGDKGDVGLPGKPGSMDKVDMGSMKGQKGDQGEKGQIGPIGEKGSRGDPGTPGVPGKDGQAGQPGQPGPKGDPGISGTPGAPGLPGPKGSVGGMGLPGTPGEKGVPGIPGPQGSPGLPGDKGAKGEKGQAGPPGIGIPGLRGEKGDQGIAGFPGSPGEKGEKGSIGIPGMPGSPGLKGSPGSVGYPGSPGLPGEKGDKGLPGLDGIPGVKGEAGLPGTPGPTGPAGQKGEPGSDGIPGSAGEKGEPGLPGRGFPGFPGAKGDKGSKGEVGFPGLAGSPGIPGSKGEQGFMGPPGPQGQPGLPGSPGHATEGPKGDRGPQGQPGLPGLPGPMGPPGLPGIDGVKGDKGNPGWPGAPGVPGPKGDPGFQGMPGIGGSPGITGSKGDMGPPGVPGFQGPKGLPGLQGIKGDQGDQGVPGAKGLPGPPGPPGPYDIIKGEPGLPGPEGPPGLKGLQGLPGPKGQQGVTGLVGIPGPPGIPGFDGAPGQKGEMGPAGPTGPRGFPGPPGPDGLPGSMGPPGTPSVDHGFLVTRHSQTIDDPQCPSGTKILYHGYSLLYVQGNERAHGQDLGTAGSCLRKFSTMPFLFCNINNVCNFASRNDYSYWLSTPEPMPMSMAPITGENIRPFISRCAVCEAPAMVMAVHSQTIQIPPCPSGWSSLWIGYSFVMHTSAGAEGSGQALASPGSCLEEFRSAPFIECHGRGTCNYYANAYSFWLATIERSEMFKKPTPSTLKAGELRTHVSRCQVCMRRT
collagen IV/galectin-8 (hit ECM combination) (human), sequence (chain, as listed by the source limits assumed, chain 2 of 2): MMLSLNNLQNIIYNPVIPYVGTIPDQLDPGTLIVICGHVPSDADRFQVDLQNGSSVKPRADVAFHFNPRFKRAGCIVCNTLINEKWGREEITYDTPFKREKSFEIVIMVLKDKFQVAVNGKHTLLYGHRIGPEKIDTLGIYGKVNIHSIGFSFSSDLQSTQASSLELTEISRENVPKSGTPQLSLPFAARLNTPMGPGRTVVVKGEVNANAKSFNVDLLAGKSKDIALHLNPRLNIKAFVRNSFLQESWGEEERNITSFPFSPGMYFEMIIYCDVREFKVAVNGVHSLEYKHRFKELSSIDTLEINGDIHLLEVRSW
collagen I/laminin (hit ECM combination) (human), sequence (P02452 162-1218 limits assumed, chain 1 of 2): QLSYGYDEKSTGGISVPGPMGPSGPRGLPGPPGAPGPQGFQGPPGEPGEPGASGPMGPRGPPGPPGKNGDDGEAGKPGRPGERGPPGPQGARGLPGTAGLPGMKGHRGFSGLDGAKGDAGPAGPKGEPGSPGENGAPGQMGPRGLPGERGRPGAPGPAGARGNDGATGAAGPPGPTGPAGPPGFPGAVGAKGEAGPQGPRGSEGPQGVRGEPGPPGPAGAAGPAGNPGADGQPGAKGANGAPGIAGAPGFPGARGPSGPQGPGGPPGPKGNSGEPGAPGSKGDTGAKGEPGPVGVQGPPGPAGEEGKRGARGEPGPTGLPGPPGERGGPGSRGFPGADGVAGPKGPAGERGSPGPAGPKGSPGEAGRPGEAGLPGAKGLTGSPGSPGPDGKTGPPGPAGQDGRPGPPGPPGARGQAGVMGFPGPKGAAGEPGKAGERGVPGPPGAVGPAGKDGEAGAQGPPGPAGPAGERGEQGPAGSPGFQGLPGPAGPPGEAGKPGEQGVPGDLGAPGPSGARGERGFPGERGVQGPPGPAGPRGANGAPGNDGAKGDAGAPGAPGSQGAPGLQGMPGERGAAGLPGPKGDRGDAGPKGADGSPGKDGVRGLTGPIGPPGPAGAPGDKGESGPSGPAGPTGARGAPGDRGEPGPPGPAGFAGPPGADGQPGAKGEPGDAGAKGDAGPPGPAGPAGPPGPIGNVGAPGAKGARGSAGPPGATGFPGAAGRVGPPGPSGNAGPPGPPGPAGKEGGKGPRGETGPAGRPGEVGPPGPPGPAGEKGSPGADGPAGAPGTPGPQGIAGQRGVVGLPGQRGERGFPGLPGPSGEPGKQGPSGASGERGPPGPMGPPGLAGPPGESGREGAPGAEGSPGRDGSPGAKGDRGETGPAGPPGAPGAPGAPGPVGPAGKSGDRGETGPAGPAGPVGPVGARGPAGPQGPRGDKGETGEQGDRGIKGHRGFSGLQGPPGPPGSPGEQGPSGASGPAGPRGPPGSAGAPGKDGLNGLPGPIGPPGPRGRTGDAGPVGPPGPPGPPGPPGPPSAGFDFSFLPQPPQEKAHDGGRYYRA
collagen I/laminin (hit ECM combination) (human), sequence (chain, as listed by the source limits assumed, chain 2 of 2): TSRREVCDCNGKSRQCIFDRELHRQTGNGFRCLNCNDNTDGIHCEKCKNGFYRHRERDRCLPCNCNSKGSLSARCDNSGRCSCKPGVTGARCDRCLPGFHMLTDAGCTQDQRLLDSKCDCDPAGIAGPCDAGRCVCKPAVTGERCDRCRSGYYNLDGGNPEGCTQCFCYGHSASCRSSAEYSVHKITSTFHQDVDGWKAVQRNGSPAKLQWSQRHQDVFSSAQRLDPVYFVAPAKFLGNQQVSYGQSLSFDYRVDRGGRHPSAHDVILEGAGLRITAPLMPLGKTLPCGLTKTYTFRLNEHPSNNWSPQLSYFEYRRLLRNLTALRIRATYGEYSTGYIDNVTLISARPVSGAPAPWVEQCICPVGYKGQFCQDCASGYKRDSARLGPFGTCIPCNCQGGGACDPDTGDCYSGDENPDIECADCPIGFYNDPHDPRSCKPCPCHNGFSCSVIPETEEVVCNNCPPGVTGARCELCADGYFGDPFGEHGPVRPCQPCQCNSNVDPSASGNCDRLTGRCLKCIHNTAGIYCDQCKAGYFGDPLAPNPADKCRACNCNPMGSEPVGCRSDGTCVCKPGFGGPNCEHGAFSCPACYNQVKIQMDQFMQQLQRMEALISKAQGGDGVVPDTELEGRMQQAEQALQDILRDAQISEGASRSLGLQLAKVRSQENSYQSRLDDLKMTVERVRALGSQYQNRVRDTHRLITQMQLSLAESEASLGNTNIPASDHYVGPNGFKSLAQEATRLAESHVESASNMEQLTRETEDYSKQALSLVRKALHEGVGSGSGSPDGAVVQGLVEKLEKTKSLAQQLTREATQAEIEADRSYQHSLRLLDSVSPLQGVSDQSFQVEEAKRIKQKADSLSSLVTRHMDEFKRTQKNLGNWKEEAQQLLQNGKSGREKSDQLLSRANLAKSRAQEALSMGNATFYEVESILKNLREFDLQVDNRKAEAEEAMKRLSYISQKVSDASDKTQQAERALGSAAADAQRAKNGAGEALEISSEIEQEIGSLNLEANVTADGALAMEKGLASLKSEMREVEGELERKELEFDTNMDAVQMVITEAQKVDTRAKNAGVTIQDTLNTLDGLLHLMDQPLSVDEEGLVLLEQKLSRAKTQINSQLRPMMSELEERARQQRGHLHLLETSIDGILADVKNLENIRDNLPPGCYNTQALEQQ

α1 integrin (from UniProt P56199 29-1179) (receptor)
50%: all assays above
